Substitutions are numbered along the chain they refer to.

The values that follow come from patent US20110230374A1 (UNIVERSITY OF MARYLAND BALTIMORE, published 2011).

The target of test [1] is T1, hen egg lysozyme (hen, UniProt P00698 19-147).
T1 construct: Soluble monovalent antigen; Biotinylated for YSD titration; unlabelled analyte in SPR and titrant in ITC; also called HEL
The experiment in a line: YSD antigen titration, flow cytometry, biotin-HEL and SAPE. A general note: In flow cytometry, cells or beads pass a laser one at a time.

In test [2] the target is T1, hen egg lysozyme. As to the kind of experiment: ITC at 25 C, VLR refolded from E. coli inclusion bodies, HEL injected.
The target of test [3] is T1, hen egg lysozyme. As to the kind of experiment: SPR (BIAcore T100), biotinylated yeast-secreted VLR on NeutrAvidin, antigen as analyte. A general note: In SPR one partner is held on a chip, and binding of the other changes the refractive index at the surface.
Test [4] concerns the target T1, hen egg lysozyme. As to the kind of experiment: SPR, steady-state analysis, VLRB.2D (117.0-10.9 µM) over immobilized HEL (FIG. 3A); SPR of FIG. 3A; clone found by phage display.
In test [5] the target is T1, hen egg lysozyme. The experiment in a line: SPR, Table 1.
The target in test [6] is T1, hen egg lysozyme. As to the kind of experiment: SPR, VLR over immobilized HEL.
Test [7] deals with T1, hen egg lysozyme. As to the kind of experiment: SPR, steady-state analysis, 2DMut.12 (30.8-1.0 µM) over immobilized HEL (FIG. 3B).
For test [8], the target named is T1, hen egg lysozyme. The experiment in a line: SPR (BIAcore T100), biotinylated yeast-secreted VLR on NeutrAvidin, HEL as analyte (7.66-0.00299 nM).

T1 sequence (P00698 19-147): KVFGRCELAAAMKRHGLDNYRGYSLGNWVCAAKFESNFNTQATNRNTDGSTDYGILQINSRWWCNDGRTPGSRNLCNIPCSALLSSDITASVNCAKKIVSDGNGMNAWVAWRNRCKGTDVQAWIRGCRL

B1: VLRB.HEL.2D (other)
chain: ACPSQCSCSGTTVDCSGKSLASVPTGIPTTTQVLYLYDNQITKLEPGVFDRLTQLTRLDLDNNQLTVLPAGVFDKLTQLTQLSLNDNQLKSIPRGAFDNLKSLTHIWLLNNPWDCACSDILYLSRWISQHPGLVFGYLNLDPDSARCSGTNTPVRAVTEASTSPSKCP
notes: also called VLRB.2D; wild-type VLRB.2D
The Kd is the free concentration of one partner at which half of the binding sites on the other are occupied at equilibrium, for simple one-to-one binding. Low values mean a tighter complex, high ones a looser complex. For the molecule B1, the Kd in the test with hen egg lysozyme [1] is 659 nM; with hen egg lysozyme [2], 427 nM; in the test with hen egg lysozyme [3], 455 nM; in the test with hen egg lysozyme [4], 20000 nM.

B2: VLRB.2DMut.13 (other)
chain: B1 chain with Q40R, K101R, G132W, P142H, E159K
With B2, the dissociation constant Kd in the test with hen egg lysozyme [2] was 34 nM; with hen egg lysozyme [3], 55.1 nM.

B3: VLRB.2DMut.12 (other)
chain: B1 chain with G132W, P142H
Turning to B3, the “fold improvement of affinity over wild-type VLRB.HEL.2D” value in the test with hen egg lysozyme [5] is 100 fold. Besides, the “fold improvement of affinity over wild-type VLRB.2D” value with hen egg lysozyme [6] is 13 fold. Moreover, the equilibrium dissociation constant (Kd) in the test with hen egg lysozyme [1] was determined as 6.9 nM; with hen egg lysozyme [2] it was 28 nM; with hen egg lysozyme [7], 1500 nM; with hen egg lysozyme [3], 4.3 nM.

B4: VLRB.2DMut.15 (other)
chain: B1 chain with T29I, D86V, D141Y
Regarding B4, the dissociation constant Kd came out at 8 nM with hen egg lysozyme [2] and 20.2 nM with hen egg lysozyme [3].

B5: VLRB.CTMut.5 (other)
chain: ACPSQCSCDQTTVYCHNRRLTSVPTGIPTTTQVLYLYDNQITKLEPGVFDRLTKLTHLSLGYNQLKSVPRGAFDNLKSLTHIWLLNNPWDCQCTDILYLKNWIVQHASIVNPHTHGGVDNVKCSGTNTPVRAVTEASTSPSKC
For the molecule B5, the “fold improvement of affinity over VLRB.HEL.1” value with hen egg lysozyme [5] came out at 1300 fold. Further, the Kd with hen egg lysozyme [8] turned out to be 0.119 nM.
